# Reference: the DeepSol protein solubility set
# Test: soluble on expression in E. coli; label from the status in PepcDB or PDB records
row,Sequence,soluble on expression in E. coli
1,GAASEAEYGKVSKAWTLHADGSQEYRSSMELTLFTHTAMNSTYGESFIVYNPDFQTLKIHSSYTRQKDGTIVKTPDNAFVEVLPRFAADAPAYNQLKEMVVVHTGLELGATIYLDYSIITKPGYYPALDINERLQETSPVKECKVSISVPEGTPLACGLYGSPVKAVEESHDGIKEVHWTLRNIPASSREAFQPKNREASPHLVASTYPSGKAALATLDKRLKESQGYESKTFAQFLTDKSGNEQEKVNIIRDHILNNLSTCPIPMAMTGYTVRDIDTVLRSAYGTPLEIAQLLNVMLNAAGIPSEVLAVYPGHLDTDACGLAAIQTLAVKATVDGKDQYLSASPLTNRGGLDKVVSLSGTSIEIETTPIQIKESRSVAISADQAKDGFAICVLPAISAGIDSWGMSALNSKRSNLFELPSLIREEVTYTVTPAEGMKLQTSTQEQVISKPFGKVTRTITPRGNTIEVVRTIELNKQQFTPAEYSDVRSLIHEWTNPDNRVLLFSL,soluble
2,MSLSAYSQVSIDKTMFVEGREFLHIDQAGWVAKESTSEEDNRMSKVQEMLSEKYQKDSFSIYVKQLTTGKEAGINQDEKMYAASVLKLSYLYYTQEKINEGLYQLDTTVKYVSAVNDFPGSYKPEGSGSLPKKEDNKEYSLKDLITKVSKESDNVAHNLLGYYISNQSDATFKSKMSAIMGDDWDPKEKLISSKMAGKFMEAIYNQNGFVLESLTKTDFDSQRIAKGVSVKVAHKIGDADEFKHDTGVVYADSPFILSIFTKNSDYDTISKIAKDVYEVLKEGHHHHHH,soluble
3,MEKLIAIQQNTIKQETVQTMSSREIAELCGKRHGHVMRDIRKLFSELKIDLSNFAGLYKDSTGRTLPCYHLPKREALIVILGYNTVLRAKIIDYWKKLEEQAANPQIDFSSPEIRAAIMMHLKNKIKQTA,soluble
4,MGSSHHHHHHSSGLVPRGSHMTVEQTPENPGTAARAAAEETVNDILQGAWKARAIHVAVELGVPELLQEGPRTATALAEATGAHEQTLRRLLRLLATVGVFDDLGHDDLFAQNALSAVLLPDPASPVATDARFQAAPWHWRAWEQLTHSVRTGEASFDVANGTSFWQLTHEDPKARELFNRAMGSVSLTEAGQVAAAYDFSGAATAVDIGGGRGSLMAAVLDAFPGLRGTLLERPPVAEEARELLTGRGLADRCEILPGDFFETIPDGADVYLIKHVLHDWDDDDVVRILRRIATAMKPDSRLLVIDNLIDERPAASTLFVDLLLLVLVGGAERSESEFAALLEKSGLRVERSLPCGAGPVRIVEIRRA,soluble
5,MGSDKIHHHHHHMSRFVVITAAQDFQRKVQSAVRGALHGTVQILPPSVMLGGPQELFGRLSGEPPEVLVLGPGLPGDEALKLATVFDLQYPEISLVLVEDMASEQVINAMRAGIRDIVSPSAEVSELRILLERACLASAGRRRGLVAAAGPERPAGRVIAVMSPKGGVGKTTVATNLAIGLGKIAPMGVVIVDLDVQFGDVATGLQLEPEHTLRDAVGGAAFQDSMVLKAFLTVHPSGIYALCAPNTPGEADHISGEAVSHLLNQMAAEFQYVVVDTTPGLGEHVLATLEQATDAVWVCGMDIPSIRGLHTSFEVLRELQLLPQGRHVVLNFADRRSGLTVQDVEATIGVPVDTVVPRSRAVPFSTNKGVPLLQDSSHDGAARAFAKLVERFDPKRATQPQKKVHRRMVIS,not soluble
6,MGQRYKRMSSTDTNEYMSDNLAKAISNPLFPALDSMLRAGRHISTEDLDNHALLSDFELELSSFYQRYNTELVKAPEGFFYLRPRSTSLIGRSVLSELDMLVGKVLCFLYLSPERLAHEGIFTNQELYDELLALADEKKLMKLVTNRATGSDLDKEKLFEKVRTSLRRLRRLGMIINIGETGKFSISEAVFRFGADVRVGDDIREAQLRLIRDGEAVVHTKEPSQGSLLSEEDQEEQAQEEMTEEGEALEHHHHHH,soluble
7,MGSDKIHHHHHHMAAPIIHGGGITEAAARFGGTPEDWLDLSTGINPCPAALPEIDARVWHRLPDRHVEEAARAAASRYYRTGELMPLPVPGTQAAIQLLPRIAGQRKRVAIFAPTYGEYARVLKAAGLVVDSVTCAGDLQAAHGLAVVVNPNNPTGRRFPPEEILAMAEAMRAHGGLLVVDEAFGDLEPDASVAGHVAANDNLVVFRSFGKYFGLAGLRLGFVVASRTVEDSFRDWLGPWSVSGPALAISAKLMEGDTLGIKVGIAERKAALDAVLFGAGLDVVGGTGLFTLVEHERAYDLHAALCEAHILTRKFDYDPRWLRIGLSPNAQGDRRLAEALNRMGV,not soluble
8,MGSDKIHHHHHHMMELLNVNNLKVEFHRVEGIVKAVDGISYKLNKGESLGIVGESGSGKSVSVLSLLRLINRNGRIVDGEAIFLGKDLLKLNKEELRNIRGKDISIIFQNPMTSLNPIIRVGIQVMEPIIWHRLMKNEEARERAIELLERVGIPESPKRFLNYPFQFSGGMRQRVMIAMALACHPKLLIADEPTTALDVTIQAQIMELLQELKEEYGMSVIFITHDLSVATNFCDRIITMYAGKIVEEAPVEEILKTPLHPYTKGLLNSTLEIGSRGKKLVPIPGNPPNPTKHPSGCKFHPRCSFAMEICQREEPPLVNISENHRVACHLIKGESK,not soluble
9,MGHHHHHHSHMYKFCANALKVILSLRGGVKVYNKENLPADSGFVIACTHSGWVDVITLGVGILPYQIHYMAKKELFQNKWIGSFLKKIHAFPVDRENPGPSSIKTPIKLLKEGEIVGIFPSGTRTSEDVPLKRGAVTIAQMGKAPLVPAAYQGPSSGKELFKKGKMKLIIGEPLHQADFAHLPSKERLAAMTEALNQRIKELENKLDQL,soluble
10,MTSKADYLKKYLSPASGDIEKKKKKKNKDKNKPSGLRLIEEDAFLSVDAAKTRDIGSDEEREEIEVLKQSVKKAKVVHGFKQTFAEVDAPKVIKPEPLSPDNSPPRGKRQRHDSDNSPPRPSRKRNDSDNSPPRPSRNRHDSDKDNSPPRRRRHDSDNSPPRPSRKIREESPSARNRRSPPRTRRDRHDSDNSPPRNRSRRDSDNSPPRRRPSSPARRRKDDDLSPPRKSRKIEEPKKIKKEEPDSDTETSGRTLEGKRSGLQSARDLKEESDKLRAKNSKMFEEMDTSVSGRFADTVYRQKQTKKKGKDSEEDQAKKERETKKTEELKEKYKSWNKGVAQIEDRRAQLEEMARVAAEPMARARDDDAMNAHLKEVLHAADPMANMIQKKRRDTAIDRGELVYPSYHGHFVPNRFGIAPGYRWDGVDRSNGFEGKLAKTENTKTANQSEYYKSIAEYE,not soluble
11,AHHHHHHGSFTGKVLIPVKVLKKFENWNEGDMILLEDWKAKELWESGVVEIIDEADKVIGEIDRVLSEEKKNLPLTPIPEGLYEKAEFYIYYLEKYIQEKVDNIETIQTKVTKLANLKKKYKTLKEIRFKKILEAVRLRPNSMEILARLSPAEKRIYLEISKIRREWIGD,not soluble
12,MDDGDTADDIMDATYRALCTHGYADLTMQDIADESDKSKAALHYHYDSKHDLLCAFLEYLYDGFVDRIEDPAGETPHERLLSLIDSVLDKPDDGSEEFGTAILEIRAHAPYEPGFRERLTKFDDYLVDELEVILEDGIADGTFKSDLDADETAQFIVTVLTGAATERVTTGRPVKCTRRMLTEYVETHLLDGQQEVTA,not soluble
13,MSNTSSSHNTAFTPSSPAERYAQALASGQFMPDEAQAQAVQELERVWQELLSRYKASKKAFRRFRRQTSPKGVYMWGGVGRGKTWLMDQFYDSIPFRRKTRMHFHHFMQHVHRELNKLSGQRNPLDLVADQIYKDAVIICFDEFFVSNVTDAMILSDLFQKLFNRGVTLVATSNIAPDGLYKNGIHRDRFLPTIELVQKNCTILNVDAGVDYRLRVLKQAQLFKHPLTDDAKIWMSQRFSAITRSQIVSQQPITINNRVVETLGHTEDVLWCEFSELCLKPRSPADFIEIANIYNTVLVSNVPHLTDYLSEGTRRFIYLVDEFYDRGVKLLLTSQDSIIEIYEGEKLAFEIERTRSRLLEMQSDEYLHSEHRHINSENNSLEHHHHHH,not soluble
14,MSLKTNKLINKSFRFKQFSIEEGTCGMPISTDGVLLGSWAFSLSPTTILDIGCGTGLLSLMCAQRFPHAHITALDIEQTAYLAAEHNRQQSPWAERIECQHADILHWQPSKRFAAIICNPPYFNSGETAQHQVRATARHTISLQHQALIERLPQLLEPDGVASFILPKAEGEDFIALARQAGLFVGRYCQVQPTTDKPVHRLLFELHLSPCLPVETRLVIREQQGYSEAFCQLTRDFYLKMSEGHHHHHH,soluble
15,MGSDKIHHHHHHMLYADENSFDIGAKITKTKPVLLPIGAVEAHGPHLPLGTDNILASEYSAKIAAETSGFVLPVLPYGQVWSLQDFPGSLTLSNETVTKVVVEIGESLYKQGFRLFVPVSGHLGNMAALKDAARELYAKYPDMVILHIFYPNIQKLAMDVREGNANHHTYIHACEIETSLMLYLSPENADMSRAIDDPPILPIDADFTPTPWQNFTKTAVLGEATLATAEKGEYLIEKTLKTCVELIKLEQEKIRKSTEME,not soluble
16,MKLIVSGKNLEVTEGLREAVEKQISKLEKYFKPEVEAHVTLSVEKNRQIVEVTIPFNGVILRGEETNNDMYASIDIVGDKLERQVRKQKTKLERRKYSDSLKFQNIPDYHKEEQEPEIVKTKRFAIKPMSEEEAVLEMELLGHNFFVFQNGDSNEVNVVYKRKDGNYGLIEPEFLEHHHHHH,soluble
17,MHVGIVAQRGNERATSLAGEIREQLRALEVTVWVDTATAEALACAGECGRDTTAFTDCDLVVSIGGDGTFLFAARGAGATPILGVNLGEVGFLNAVAPADAVEAVREEVNRYRETGAVRCREVPRVVAAGDGWASTPALNEVAIQGEQRGHGHGVAVDVRVDGSQYEATRADGVLVATPTGSTAYNLSEGGPLVQPSVDALVVTEMCGADALPPLVTGLDSEIRIRVETLDDGGEGRVVVASDGGRLTRVDPPVEMTVTAADEPARVAGPAADFFEALSKLELEHHHHHH,not soluble
18,MSLTNDIYDKGLAIRKEVVGVDSVERSLRDATEYTAPFQALATEYCWGRVWGRDELDRRTRSIANIAMMIALNRAPELRIHIKGALTNGVPRKEIAEVILQSAVYCGIPAAGDAFRQMQSVFDEADAAAACAPASPAARKSIAVIGLGAMGYPMAAQLVRAGHDVRPYDANPAVLARFAEEFNTGVAPIASCVAGADFVVTVLPDSTVVTRVLDGDNGSGGVAARIKPGATLIDMTSGDPATTRALAARLGEAGVRMIDAPVSGGFVKARTGELAIMVGGEADTVAAAMDILQAMGTSIAHVGPIGAGHTVKALNNYISAIGWLAVIEAIHTGKRFGLDVATMNRIFNQSSGRNSSTANKVEQAVLSGTYHTGFSLALMAKDVGIAVGLARQMGVDAEVGTLAHRIIQTAFDQSAEKDLDNSRLFDILYSEGHHHHHH,not soluble
19,MTIAILSTGDEIIHGDTLNTNAHYIAHALCSEGLPLGLQVACSDKENEIIDSLNFLTQHHDILILIGGLGPTKDDITRFALAKFTKEPLLQHADALDHIEKKANIAKISLNQGNLQQCLFPANARLFPNPYGTAMGCSYSWKGKVFILLPGPPRECLPMFNQDVLPLLLQTSRHSNK,not soluble
20,VAITDNRGVITHVNEKFCDISQYEYYELVGTTHKIINSGFHPRSFFKQMWKTIAQGNIWKGEICNRTKQGKLYWVDTTIVPLKDNDGLLKNYISIRTDITQ,not soluble
21,MYLSHFGLEQLPFHLTPDTELFLGLAPHFEAIQTLSAAIEMGEGVSKLTGEVGTGKTMVCRMLLTHLGDEVALIYLPNPMLSGEELRQAVAAELQLDVASPVRVVEQIQTRLIELHQQGKRVVALVDEAQALSDEALETLRLFGNLETEQTKLLQIVLIGQPELDVRLAQHHLRQFRQRITFNANLRPLTQAETEVYIESRLQKAQAPYPLFNATLKKAVWRASQGIPRLINQICHKALLLAWHEQSPLVNQHHLFAAIHDTYDSCKPRFKTPILWGWSKP,not soluble
